Reference: the Immune Epitope Database (IEDB)
Values belong to the sequence of their own block, whether it stands above or below them.

Tests used:
HLA-A*69:01 = assay: IEDB peptide-MHC binding, purified MHC/direct/fluorescence; filed as Kd, often an IC50 or EC50 that approximates it; ≥ and ≤ were set here for values at or beyond the usual limits of such assays
HLA-A*01:01 [1] = assay: as above; conditions: source organism: Escherichia coli
HLA-A*02:01 [2] = assay: as above
HLA-A*03:01 = assay: as above
HLA-A*11:01 = assay: as above; conditions: source organism: Francisella tularensis subsp. holarctica LVS
HLA-B*53:01 = assay: IEDB peptide-MHC binding, purified MHC/competitive/radioactivity; filed as Kd, often an IC50 or EC50 that approximates it; ≥ and ≤ were set here for values at or beyond the usual limits of such assays
HLA-B*40:01 = assay: IEDB peptide-MHC binding, purified MHC/direct/fluorescence; filed as Kd, often an IC50 or EC50 that approximates it; ≥ and ≤ were set here for values at or beyond the usual limits of such assays
HLA-A*02:01 [3] = assay: IEDB peptide-MHC binding, purified MHC/competitive/fluorescence; ≥ and ≤ were set here for values at or beyond the usual limits of such assays
HLA-B*51:01 = assay: IEDB peptide-MHC binding, purified MHC/competitive/radioactivity; filed as Kd, often an IC50 or EC50 that approximates it; ≥ and ≤ were set here for values at or beyond the usual limits of such assays
HLA-B*35:01 = assay: as above
HLA-B*07:02 [4] = assay: as above; conditions: source organism: Dengue virus 4 Philippines/H241/1956
HLA-A*01:01 [5] = assay: as above
HLA-B*15:01 = assay: IEDB peptide-MHC binding, purified MHC/direct/fluorescence; filed as Kd, often an IC50 or EC50 that approximates it; ≥ and ≤ were set here for values at or beyond the usual limits of such assays; conditions: source organism: Vibrio cholerae
HLA-B*07:02 [6] = assay: as above; conditions: source organism: Vibrio cholerae
HLA-A*02:02 = assay: IEDB peptide-MHC binding, purified MHC/competitive/radioactivity; filed as Kd, often an IC50 or EC50 that approximates it; ≥ and ≤ were set here for values at or beyond the usual limits of such assays; conditions: source organism: Lymphocytic choriomeningitis virus (strain Armstrong)
HLA-A*02:03 = assay: as above; conditions: source organism: Lymphocytic choriomeningitis virus (strain Armstrong)
HLA-A*02:06 = assay: as above; conditions: source organism: Lymphocytic choriomeningitis virus (strain Armstrong)
[7] = source organism: Rickettsia sibirica
[8] = source organism: Francisella tularensis subsp. holarctica LVS
[9] = source organism: Dengue virus 4 Dominica/814669/1981
[10] = source organism: Zaire ebolavirus
[11] = source organism: Dengue virus 4 Philippines/H241/1956
[12] = source organism: Dengue virus 1 Brazil/97-11/1997
[13] = source organism: Entamoeba histolytica HM-1:IMSS
[14] = source organism: Vibrio cholerae

Kd (HLA-A*69:01; source organism: Escherichia coli): 1690 nM
Kd (HLA-A*01:01 [1]): 7130 nM
Sequence: ISEPMFHQG

Sequence: KLYFWIPWS
Kd (HLA-A*02:01 [2]; [7]): 197 nM
Kd (HLA-A*69:01; [7]): ≥ 20000 nM

Sequence: KLYGLSQGY
Kd (HLA-A*03:01; [8]): 4.7 nM
Kd (HLA-A*11:01): 210 nM

Sequence: LATGPILTLW
Kd (HLA-B*53:01; [9]): 15.1 nM

Kd (HLA-B*40:01; source organism: Corynebacterium diphtheriae): 43.4 nM
Sequence: LEEEGVTPL

Sequence: LEKVQRQIQ
IC50 (HLA-A*02:01 [3]; [10]): ≥ 446000 nM

Sequence: LGVATAHGS
IC50 (HLA-A*02:01 [3]; [10]): ≥ 277000 nM

Sequence: LIGLSSRATW
Kd (HLA-B*53:01; [11]): 378 nM

Sequence: LLFEVEQEI
Kd (HLA-A*02:01 [2]; source organism: Influenza A virus (A/Saudi Arabia/7971/2000(H1N1))): 15.7 nM

Sequence: LPIRYQTTA
Kd (HLA-B*51:01; source organism: Dengue virus 3 Martinique/1243/1999): 15900 nM

Sequence: LPLPWTAGAD
Kd (HLA-B*35:01; [9]): 8060 nM
Kd (HLA-B*51:01; [9]): ≥ 69600 nM

Sequence: LPTYLSSRAK
Kd (HLA-B*35:01; [11]): 15100 nM
Kd (HLA-B*51:01; [11]): ≥ 49800 nM

Sequence: LPVLLGSFGC
Kd (HLA-B*35:01; [12]): 5940 nM
Kd (HLA-B*51:01; [12]): ≥ 43500 nM
Kd (HLA-B*53:01; [12]): 117 nM

Sequence: LPVWLSYKVA
Kd (HLA-B*35:01; [12]): 864 nM

Sequence: MAICSAVPT
Kd (HLA-B*35:01; [11]): 543 nM

Sequence: NISLPLYTV
Kd (HLA-A*02:01 [2]; [13]): 47.5 nM
Kd (HLA-A*69:01; [13]): 8.5 nM

Sequence: NPTTLIASL
Kd (HLA-B*07:02 [4]): 210 nM

Sequence: NPWMEDKTH
Kd (HLA-B*35:01; [12]): 2300 nM

Sequence: NSALTLHWF
Kd (HLA-A*01:01 [5]; [9]): 2320 nM

Sequence: NSEQGGKAY
Kd (HLA-A*01:01 [5]; [12]): 482 nM

Sequence: QLANETTQA
IC50 (HLA-A*02:01 [3]; source organism: Sudan ebolavirus): 25900 nM

Sequence: QLNETIYTS
IC50 (HLA-A*02:01 [3]; [10]): 2800 nM

Sequence: QLQCHQIAI
Kd (HLA-A*02:01 [2]; [14]): 92 nM
Kd (HLA-B*15:01): 7260 nM
Kd (HLA-A*69:01; [14]): 5310 nM
Kd (HLA-A*03:01; [14]): 13200 nM
Kd (HLA-B*07:02 [6]): 6710 nM

Sequence: RAADEPPLV
IC50 (HLA-A*02:01 [3]; source organism: Vaccinia virus): 2830 nM

Sequence: REAKATRPL
Kd (HLA-B*40:01; source organism: Mycobacterium tuberculosis): 80.8 nM

Sequence: RIYCQENPY
Kd (HLA-A*03:01; [8]): 91.7 nM
Kd (HLA-A*11:01): 26.3 nM

Sequence: RNHLRDLMGV
Kd (HLA-A*02:02): 428 nM
Kd (HLA-A*02:03): 733 nM
Kd (HLA-A*02:06): 107 nM
